In paper PMC3365654 (The Febs Journal, 2012):

Target: wildtype full-length Grb2 (human, UniProt P62993 1-217)
Assay: ITC

Kd [µM] | dH [kcal/mol] | stoichiometry N | Binder
7.21 | -34.5 | 1.94 | wildtype proline-rich (PR) domain of Gab1 (domain or fragment, human, UniProt Q13480 331-530, looked up) TSKLDTIPDIPPPRPPKPHPAHDRSPVETCSIPRTASDTDSSYCIPTAGMSPSRSNTISTVDLNKLRKDASSQDCYDIPRAFPSDRSSSLEGFHNHFKVKNVLTVGSVSSEELDENYVPMNPNSPPRQHSSSFTEPIQEANYVPMTPGTFDFSSFGMQVPPPAHMGFRSSPKTPPRRPVPVADCEPPPVDRNLKPDRKVK
20.3 | -13.2 | 1.02 | PR domain of Gab1 with the G2 motif mutated (domain or fragment, human, UniProt Q13480 331-530, looked up) TSKLDTIPDIPPPRPPKPHPAHDRSPVETCSIPRTASDTDSSYCIPTAGMSPSRSNTISTVDLNKLRKDASSQDCYDIPRAFPSDRSSSLEGFHNHFKVKNVLTVGSVSSEELDENYVPMNPNSPPRQHSSSFTEPIQEANYVPMTPGTFDFSSFGMQVPPPAHMGFRSSPKTPPRRPVPVADCEPPPVDANLAPDRKVK
2.24 | -23.4 | 1.07 | PR domain of Gab1 with the G1 motif mutated (domain or fragment, human, UniProt Q13480 331-530, looked up) TSKLDTIPDIPPPAPPAPHPAHDRSPVETCSIPRTASDTDSSYCIPTAGMSPSRSNTISTVDLNKLRKDASSQDCYDIPRAFPSDRSSSLEGFHNHFKVKNVLTVGSVSSEELDENYVPMNPNSPPRQHSSSFTEPIQEANYVPMTPGTFDFSSFGMQVPPPAHMGFRSSPKTPPRRPVPVADCEPPPVDRNLKPDRKVK
